Experiment [1] deals with HLA-A*02:01. The experiment can be described thus: IEDB peptide-MHC binding, purified MHC/competitive/fluorescence; filed as Kd, often an IC50 or EC50 that approximates it; ≥ and ≤ were set here for values at or beyond the usual limits of such assays.
In experiment [2] the target is HLA-A*02:03. The description is as above. Particulars: source organism: Homo sapiens.
Experiment [3] addresses HLA-A*69:01. Described as above.
The next experiment addresses HLA-A*01:01. The experiment can be described thus: IEDB peptide-MHC binding, purified MHC/direct/fluorescence; filed as Kd, often an IC50 or EC50 that approximates it; ≥ and ≤ were set here for values at or beyond the usual limits of such assays. To be noted: source organism: Vibrio vulnificus.
In experiment [4] the target is HLA-A*02:01. The experiment is described as above. To be noted: source organism: Vibrio vulnificus.
The next experiment concerns the target HLA-A*11:01. The experiment is described as above.
Experiment [5] deals with HLA-A*26:01. The experiment is described as above. To be noted: source organism: Vibrio vulnificus CMCP6.
For a further experiment, the target named is HLA-A*31:01. The description is as above. To be noted: source organism: Vibrio vulnificus.
A further experiment deals with HLA-A*68:02. Described as above.
For experiment [6], the target named is HLA-A*69:01. The description is as above. Particulars: source organism: Vibrio vulnificus.
A further experiment addresses HLA-B*07:02. The experiment is described as above. To be noted: source organism: Vibrio vulnificus.
A further experiment deals with HLA-B*15:09. The description is as above.
In experiment [7] the target is HLA-B*15:17. The description is as above. Particulars: source organism: Vibrio vulnificus.
Another experiment addresses HLA-B*27:05. The description is as above. To be noted: source organism: Vibrio vulnificus.
For experiment [8], the target named is HLA-B*39:01. The description is as above. To be noted: source organism: Vibrio vulnificus CMCP6.
In the next experiment the target is HLA-B*40:01. The description is as above.
Another experiment addresses HLA-B*44:02. The experiment is described as above. Particulars: source organism: Vibrio vulnificus.
A further experiment has as its target HLA-B*48:01. The description is as above. To be noted: source organism: Vibrio vulnificus.
For experiment [9], the target named is HLA-B*57:01. The description is as above. To be noted: source organism: Vibrio vulnificus.
The target of another experiment is HLA-B*58:01. The description is as above. To be noted: source organism: Vibrio vulnificus.
For experiment [10], the target named is HLA-A*02:03. The experiment is described as above.
Another experiment concerns the target HLA-A*02:12. Described as above.
The target of the next experiment is HLA-A*02:19. The experiment is described as above.
For another experiment, the target named is HLA-A*03:01. The experiment is described as above. Particulars: source organism: Zaire ebolavirus.
Another experiment concerns the target HLA-A*24:03. The description is as above. To be noted: source organism: Zaire ebolavirus.
Experiment [11] deals with HLA-A*26:01. In words: IEDB peptide-MHC binding, purified MHC/competitive/fluorescence; filed as Kd, often an IC50 or EC50 that approximates it; ≥ and ≤ were set here for values at or beyond the usual limits of such assays.
Experiment [12] has as its target HLA-B*15:01. Described as above. To be noted: source organism: Zaire ebolavirus.
The target of a further experiment is HLA-B*15:42. Described as above. Particulars: source organism: Zaire ebolavirus.
In another experiment the target is HLA-B*18:01. The experiment is described as above.
In another experiment the target is HLA-B*27:03. The description is as above.
Experiment [13] addresses HLA-B*39:01. Described as above.
The target in a further experiment is HLA-B*45:06. Described as above. Particulars: source organism: Zaire ebolavirus.
The target in another experiment is HLA-B*46:01. Described as above.
The target in another experiment is HLA-B*51:01. The description is as above.
For experiment [14], the target named is HLA-B*57:01. The description is as above.
The next experiment concerns the target HLA-B*83:01. The description is as above. To be noted: source organism: Zaire ebolavirus.
In another experiment the target is HLA-A*02:11. The experiment can be described thus: IEDB peptide-MHC binding, purified MHC/direct/fluorescence; filed as Kd, often an IC50 or EC50 that approximates it; ≥ and ≤ were set here for values at or beyond the usual limits of such assays.
Another experiment deals with HLA-A*02:16. Described as above.
Experiment [15] has as its target HLA-B*15:01. The experiment is described as above. Particulars: source organism: Reston ebolavirus - Reston.
The target in experiment [16] is HLA-B*15:17. The experiment can be described thus: IEDB peptide-MHC binding, purified MHC/competitive/fluorescence; filed as Kd, often an IC50 or EC50 that approximates it; ≥ and ≤ were set here for values at or beyond the usual limits of such assays. To be noted: source organism: Bacillus anthracis str. A0488.
Setting [17] is: source organism: Vibrio vulnificus.
[18] abbreviates: source organism: Zaire ebolavirus.
[19] abbreviates: source organism: Bacillus cereus G9842.
Setting [20] is: source organism: Bacillus anthracis str. A0488.

pKd: −log10 of the molar value. A value given as a limit tells only on which side of the number the result lay.

The pKd is the negative decadic logarithm of the Kd, by convention in mol/L. A high value points to a small Kd.

Consider YQGSYGFRL, for which the negative logarithm of the Kd (pKd) was 7.89 with HLA-A*02:01 [1] (source organism: Homo sapiens), 5.67 in the experiment with HLA-A*02:03 [2] and not above 4.70 with HLA-A*69:01 [3] (source organism: Homo sapiens).
In the case of IEFIEVVRL, the negative logarithm of the Kd (pKd) with HLA-A*01:01, with HLA-A*02:01 [4], in the experiment with HLA-A*11:01 (setting [17]), with HLA-A*26:01 [5], with HLA-A*31:01 and in the experiment with HLA-A*68:02 (setting [17]) was not above 4.70 throughout. In addition, the pKd with HLA-A*69:01 [6], with HLA-B*07:02, with HLA-B*15:09 (source organism: Vibrio vulnificus CMCP6), in the experiment with HLA-B*15:17 [7], with HLA-B*27:05 and in the experiment with HLA-B*39:01 [8] was not above 4.70 throughout. Further, the negative logarithm of the Kd (pKd) with HLA-B*40:01 (setting [17]) was 7.42; with HLA-B*44:02 it was not above 4.70; with HLA-B*48:01, not above 4.70; in the experiment with HLA-B*57:01 [9], not above 4.70; in the experiment with HLA-B*58:01 it was not above 4.70.
Consider LEARVNLSV, for which the pKd with HLA-A*02:03 [10] (setting [18]), with HLA-A*02:12 (setting [18]), in the experiment with HLA-A*02:19 (setting [18]), with HLA-A*03:01, with HLA-A*24:03 and with HLA-A*68:02 (setting [18]) was not above 4.70 in each case. Further, the pKd in the experiment with HLA-B*40:01 (source organism: Sudan ebolavirus - Maleo (1979)) is 5.63; with HLA-A*02:01 [1] (setting [18]), not above 4.70; in the experiment with HLA-A*26:01 [11] (setting [18]) it was not above 4.70; in the experiment with HLA-A*69:01 [3] (setting [18]), not above 4.70; in the experiment with HLA-B*15:01 [12], not above 4.70; with HLA-B*15:42, not above 5.30. Moreover, the pKd is not above 4.70 in the experiment with HLA-B*18:01 (setting [18]); not above 4.70 in the experiment with HLA-B*27:03 (setting [18]); not above 4.70 with HLA-B*39:01 [13] (setting [18]); not above 5.30 with HLA-B*45:06; not above 4.70 with HLA-B*46:01 (setting [18]); not above 4.70 with HLA-B*51:01 (setting [18]). Further, the results for the negative-log Kd (pKd) in the experiment with HLA-B*57:01 [14] (setting [18]) and in the experiment with HLA-B*83:01 were not above 4.70 and not above 5.30, respectively.
For the sequence HLPGFGTAF, the negative-log Kd (pKd) with HLA-A*02:03 [10] (setting [18]), with HLA-A*02:11 (setting [18]), in the experiment with HLA-A*02:12 (setting [18]), with HLA-A*02:16 (setting [18]), in the experiment with HLA-A*02:19 (setting [18]) and with HLA-A*03:01 was not above 4.70 in each case. In addition, the pKd with HLA-A*68:02 (setting [18]) is not above 4.70; with HLA-B*15:01 [15] it was 7.14; with HLA-A*02:01 [1] (setting [18]) it was not above 4.70; with HLA-A*69:01 [3] (setting [18]), not above 4.70; with HLA-B*18:01 (setting [18]), not above 4.70; with HLA-B*27:03 (setting [18]), not above 4.70. Moreover, the pKd in the experiment with HLA-B*39:01 [13] (setting [18]) and with HLA-B*57:01 [14] (setting [18]) was not above 4.70 in each case.
Consider MFKNFPFFK, for which the pKd in the experiment with HLA-A*02:03 [10] (setting [19]) is not above 4.70; with HLA-A*02:11 (setting [19]), not above 4.70; with HLA-A*02:12 (setting [19]), not above 4.70; in the experiment with HLA-A*02:16 (setting [19]) it was not above 4.70; with HLA-A*02:19 (setting [19]) it was not above 4.70; with HLA-A*11:01 (setting [19]) it was not below 9.00. In addition, the pKd with HLA-A*02:01 [1] (setting [20]), in the experiment with HLA-A*26:01 [11] (setting [20]), with HLA-B*15:17 [16], in the experiment with HLA-B*18:01 (setting [20]), in the experiment with HLA-B*27:03 (setting [20]) and with HLA-B*39:01 [13] (setting [20]) was not above 4.70 in each case. Besides, the pKd with HLA-B*46:01 (setting [20]), in the experiment with HLA-B*51:01 (setting [20]) and in the experiment with HLA-B*57:01 [14] (setting [20]) was not above 4.70 throughout.
For the sequence SRAGISVVL, the negative logarithm of the Kd (pKd) with HLA-B*15:09 (source organism: Salmonella enterica subsp. enterica serovar Typhimurium str. LT2) was 6.68; in the experiment with HLA-B*39:01 [13] (source organism: Serratia marcescens), 8.33.

Values taken from the Immune Epitope Database (IEDB).
